From patent US20170267761A1 (H LUNDBECK A S, published 2017)

T1: Sortilin SORTECD_HIS (human, UniProt Q99523 78-755)
T1 construct: also called Sortilin-ECD-His; HIS-tagged Sortilin ECD
T1 sequence: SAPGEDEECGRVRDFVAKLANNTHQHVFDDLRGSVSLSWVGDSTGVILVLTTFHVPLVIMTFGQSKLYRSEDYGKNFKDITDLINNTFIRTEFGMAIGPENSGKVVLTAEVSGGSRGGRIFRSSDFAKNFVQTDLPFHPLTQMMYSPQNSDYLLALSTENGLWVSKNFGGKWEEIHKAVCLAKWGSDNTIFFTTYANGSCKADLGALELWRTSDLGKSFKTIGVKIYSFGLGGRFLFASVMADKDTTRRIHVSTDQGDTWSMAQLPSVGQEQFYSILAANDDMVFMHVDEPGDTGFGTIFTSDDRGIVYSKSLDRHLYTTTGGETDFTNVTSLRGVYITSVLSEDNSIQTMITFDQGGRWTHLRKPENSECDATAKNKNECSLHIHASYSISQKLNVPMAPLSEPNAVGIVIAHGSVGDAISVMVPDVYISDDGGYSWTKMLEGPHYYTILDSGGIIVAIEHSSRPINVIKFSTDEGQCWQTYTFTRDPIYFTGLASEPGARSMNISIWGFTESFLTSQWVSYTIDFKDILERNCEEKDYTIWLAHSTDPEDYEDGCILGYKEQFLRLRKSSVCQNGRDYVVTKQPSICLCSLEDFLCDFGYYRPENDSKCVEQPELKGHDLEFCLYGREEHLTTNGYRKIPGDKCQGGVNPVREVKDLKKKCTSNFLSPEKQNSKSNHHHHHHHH


Target: T1, Sortilin SORTECD_HIS
Experiment: HTRF, displacement of PGRN from His-tagged Sortilin ECD
Description: Dose-response evaluation of antibodies was performed with ten concentrations covering 50 pM to 1 μM in a 3-fold dilution curve. The half-maximal inhibitory concentration (IC50) values were calculated by non-linear regression using sigmoidal concentration response (variable slope) in XLfit 4 (IDBS, UK).
Experiments were performed in assay buffer (50 mM Phosphate, pH 7.0, 0.1% BSA) in a total volume of 20 μl in a Greiner 384 well, white, low volume microtiter plate, (784075, Greiner).

% inh highest conc [%]	Binder
98	1289 (antibody, V domains shown, the sheets print 1289 only, the text names its one 1289 antibody 1289-02; also called IgG1-6003-1289; Antibody 1289-02) VH: EVQLLESGGGLVQPGGSLRLSCAASGFTFSSFAMSWVRQAPGKGLEWVSAISGSGGSTYYADSVKGRFTISRDNSKNTLSLQMNSLRAEDTAVYYCATPITLVRGVGAFDIWGQGTMVTVSS VL: not shown
75	1320 (antibody, V domains shown, also called Antibody 1320; Ab 1320) VH: not shown VL: EIVLTQSPATLSLSPGERATLSCRASQSVSSYLAWYQQRPGQAPRLLIYDASNRATGIPARFSGSGSGTDFTLSISSLEPEDFAVYYCQQRTNWSITFGQGTRLEIK
